# Assay results as given in US20240124575A1.
# Read-outs that look alike come from different tables or passages of the source.
# Legend:
# [1] = target: human CD33 on CHO-K1 cells (CHO-K1-human CD33) (human) (UniProt P20138); assay: FACS, clone CHO-K1-human CD33 B8
# [2] = target: human CD33 on CHO-K1 cells (CHO-K1-human CD33) (human) (UniProt P20138); assay: FACS, clone CHO-K1-human CD33 C8
# [3] = target: human CD33 on U937 cells (endogenous) (human) (UniProt P20138); assay: FACS, U937 cells
# [4] = target: human CD33 on CHO-K1 cells (CHO-K1-human CD33) (human) (UniProt P20138); assay: FACS, clone CHO-K1-human CD33 B11
# [5] = target: human CD33 on CHO-K1 cells (CHO-K1-human CD33) (human) (UniProt P20138); assay: FACS, CHO-K1-human CD33 cells
# [6] = target: human CD33-His (extracellular domain Asp 18-His 259) (human) (UniProt P20138); assay: ELISA, antigen coated
# Sequence of human CD33-His (extracellular domain Asp 18-His 259) (human) (P20138 18-259 limits assumed): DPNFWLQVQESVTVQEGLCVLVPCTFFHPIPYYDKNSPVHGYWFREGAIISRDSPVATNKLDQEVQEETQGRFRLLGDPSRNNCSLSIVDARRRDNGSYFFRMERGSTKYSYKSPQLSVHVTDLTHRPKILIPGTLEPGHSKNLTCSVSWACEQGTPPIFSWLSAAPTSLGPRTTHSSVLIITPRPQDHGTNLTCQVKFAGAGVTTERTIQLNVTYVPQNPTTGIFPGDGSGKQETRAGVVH
# [7] = target: human CD33 on U937 cells (endogenous) (human) (UniProt P20138); assay: FACS, U937 cells; remark: listed apart in the source
# [8] = target: human CD33-His (extracellular domain Asp 18-His 259) (human) (UniProt P20138); assay: ELISA, antigen coated; remark: listed apart in the source
# [9] = target: human CD33 on CHO-K1 cells (CHO-K1-human CD33) (human) (UniProt P20138); assay: FACS, CHO-K1-human CD33 cells; remark: listed apart in the source
# [10] = target: human CD33-V-his (human) (UniProt P20138); assay: ELISA, antigen coated
# Sequence of human CD33-V-his (human) (P20138 other isoform, or with tags, fused parts or gaps limits assumed): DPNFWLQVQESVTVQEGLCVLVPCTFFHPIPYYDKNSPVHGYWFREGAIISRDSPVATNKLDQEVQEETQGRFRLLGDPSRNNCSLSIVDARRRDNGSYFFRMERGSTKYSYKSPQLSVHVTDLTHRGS
# [11] = target: human CD33-His (extracellular domain Asp 18-His 259) (human) (UniProt P20138); assay: ELISA, antigen coated; remark: listed apart in the source
# [12] = target: human CD33-C2-his (human) (UniProt P20138); assay: ELISA, antigen coated
# Sequence of human CD33-C2-his (human) (P20138 other isoform, or with tags, fused parts or gaps limits assumed): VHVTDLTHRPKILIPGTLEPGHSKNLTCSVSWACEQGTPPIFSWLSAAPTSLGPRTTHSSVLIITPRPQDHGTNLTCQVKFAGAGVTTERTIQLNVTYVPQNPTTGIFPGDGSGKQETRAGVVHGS
# [13] = target: murine CD33-His protein (murine) (UniProt Q63994); assay: ELISA, antigen coated
# Sequence of murine CD33-His protein (murine) (Q63994 18-240 limits assumed): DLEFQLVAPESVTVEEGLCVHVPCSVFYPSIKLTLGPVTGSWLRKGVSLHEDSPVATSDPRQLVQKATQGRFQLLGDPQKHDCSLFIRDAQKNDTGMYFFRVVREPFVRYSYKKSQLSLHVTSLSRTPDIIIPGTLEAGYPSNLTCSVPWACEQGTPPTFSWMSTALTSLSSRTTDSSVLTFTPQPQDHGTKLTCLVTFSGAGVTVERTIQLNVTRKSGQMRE
# [14] = target: human CD33-his protein (human) (UniProt P20138); assay: competition ELISA, coated human CD33-his, vs Biotin-C33B904 at EC80; antibody 1.95 nM
# Sequence of human CD33-his protein (human) (P20138 18-259 limits assumed): as the sequence (P20138 18-259 limits assumed) above
# [15] = target: human CD33-his protein (human) (UniProt P20138); assay: competition ELISA, coated human CD33-his, vs Biotin-C33B904 at EC80; antibody 31.25 nM
# [16] = target: human CD33-his protein (human) (UniProt P20138); assay: competition ELISA, coated human CD33-his, vs Biotin-C33B904 at EC80; antibody 250.00 nM
# [17] = target: human CD33-his protein (human) (UniProt P20138); assay: competition ELISA, coated human CD33-his, vs Biotin-C33B904 at EC80; antibody 125.00 nM
# [18] = target: human CD33-his protein (human) (UniProt P20138); assay: competition ELISA, coated human CD33-his, vs Biotin-C33B904 at EC80; antibody 7.81 nM
# [19] = target: human CD33-his protein (human) (UniProt P20138); assay: competition ELISA, coated human CD33-his, vs Biotin-C33B904 at EC80; antibody 1.95 nM; remark: listed apart in the source
# [20] = target: human CD33-his protein (human) (UniProt P20138); assay: competition ELISA, coated human CD33-his, vs Biotin-C33B904 at EC80; antibody 500 nM
# [21] = target: human CD33-his protein (human) (UniProt P20138); assay: competition ELISA, coated human CD33-his, vs Biotin-C33B904 at EC80; antibody 0.49 nM
# [22] = target: human CD33-his protein (human) (UniProt P20138); assay: competition ELISA, coated human CD33-his, vs Biotin-C33B904 at EC80; antibody 7.81 nM; remark: listed apart in the source
# [23] = target: human CD33-his protein (human) (UniProt P20138); assay: competition ELISA, coated human CD33-his, vs Biotin-C33B904 at EC80; antibody 0.49 nM; remark: listed apart in the source
# [24] = target: human CD33-his protein (human) (UniProt P20138); assay: competition ELISA, coated human CD33-his, vs Biotin-C33B904 at EC80; antibody 62.50 nM
# [25] = target: human CD33-his protein (human) (UniProt P20138); assay: competition ELISA, coated human CD33-his, vs Biotin-C33B904 at EC80; antibody 250.00 nM; remark: listed apart in the source
# [26] = target: human CD33-his protein (human) (UniProt P20138); assay: competition ELISA, coated human CD33-his, vs Biotin-C33B904 at EC80; antibody 125.00 nM; remark: listed apart in the source
# [27] = target: human CD33-his protein (human) (UniProt P20138); assay: competition ELISA, coated human CD33-his, vs Biotin-C33B904 at EC80; antibody 0 nM (no competitor)
# [28] = target: human CD33-his protein (human) (UniProt P20138); assay: competition ELISA, coated human CD33-his, vs Biotin-C33B904 at EC80; antibody 3.91 nM
# [29] = target: human CD33-his protein (human) (UniProt P20138); assay: competition ELISA, coated human CD33-his, vs Biotin-C33B904 at EC80; antibody 15.63 nM
# [30] = target: human CD33-his protein (human) (UniProt P20138); assay: competition ELISA, coated human CD33-his, vs Biotin-C33B904 at EC80; antibody 0.98 nM
# [31] = target: human CD33-his protein (human) (UniProt P20138); assay: competition ELISA, coated human CD33-his, vs Biotin-C33B904 at EC80; antibody 31.25 nM; remark: listed apart in the source
# [32] = target: human CD33-his protein (human) (UniProt P20138); assay: competition ELISA, coated human CD33-his, vs Biotin-C33B904 at EC80; antibody 0.98 nM; remark: listed apart in the source
# [33] = target: human CD33-his protein (human) (UniProt P20138); assay: competition ELISA, coated human CD33-his, vs Biotin-C33B904 at EC80; antibody 15.63 nM; remark: listed apart in the source
# [34] = target: human CD33-his protein (human) (UniProt P20138); assay: competition ELISA, coated human CD33-his, vs Biotin-C33B904 at EC80; antibody 62.50 nM; remark: listed apart in the source
# [35] = target: human CD33-his protein (human) (UniProt P20138); assay: competition ELISA, coated human CD33-his, vs Biotin-C33B904 at EC80; antibody 0 nM (no competitor); remark: listed apart in the source
# [36] = target: human CD33-his protein (human) (UniProt P20138); assay: competition ELISA, coated human CD33-his, vs Biotin-C33B904 at EC80; antibody 3.91 nM; remark: listed apart in the source
# [37] = target: human CD33-his protein (human) (UniProt P20138); assay: competition ELISA, coated human CD33-his, vs Biotin-C33B904 at EC80; antibody 500 nM; remark: listed apart in the source
# Sequence of human CD33 on U937 cells (endogenous) (human) (P20138 18-364): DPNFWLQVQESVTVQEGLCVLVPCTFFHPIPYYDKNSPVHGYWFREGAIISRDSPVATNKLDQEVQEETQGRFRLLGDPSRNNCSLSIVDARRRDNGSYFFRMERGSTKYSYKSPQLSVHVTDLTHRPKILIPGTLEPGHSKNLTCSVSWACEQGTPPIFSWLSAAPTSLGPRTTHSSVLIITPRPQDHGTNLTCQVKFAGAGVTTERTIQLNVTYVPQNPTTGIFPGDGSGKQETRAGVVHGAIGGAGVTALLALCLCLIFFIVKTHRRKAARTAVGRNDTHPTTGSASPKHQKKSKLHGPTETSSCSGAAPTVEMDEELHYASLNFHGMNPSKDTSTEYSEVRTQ
# Sequence of human CD33 on CHO-K1 cells (CHO-K1-human CD33) (human) (P20138 18-364): as above
substance,measurement,setting,value
IgG subtype control (antibody),Mean fluorescence intensity of cells,[1],30.9 MFI
same,Mean fluorescence intensity of cells,[2],30.9 MFI
same,Mean fluorescence intensity of cells,[3],114 MFI
same,Mean fluorescence intensity of cells,[4],30.9 MFI
anti-hel-hIgG1 antibody against hen egg lysozyme,Max MFI,[5],140 MFI
same,OD450 at 0.0001 nM,[6],0.05 OD450
same,OD450 at 0.001 nM,[6],0.06 OD450
same,OD450 at 0.01 nM,[6],0.06 OD450
same,OD450 at 0.1 nM,[6],0.05 OD450
same,OD450 at 1 nM,[6],0.05 OD450
same,OD450 at 10 nM,[6],0.05 OD450
same,OD450 at 100 nM,[6],0.05 OD450
same,Max MFI,[7],84 MFI
same,OD450 at 0.0001 nM,[8],0.04 OD450
same,OD450 at 0.001 nM,[8],0.04 OD450
same,OD450 at 0.01 nM,[8],0.04 OD450
same,OD450 at 0.1 nM,[8],0.03 OD450
same,OD450 at 1 nM,[8],0.03 OD450
same,OD450 at 10 nM,[8],0.04 OD450
same,OD450 at 100 nM,[8],0.06 OD450
same,Max MFI,[3],162 MFI
same,Max MFI,[9],389 MFI
same,OD450 at 0.0001 nM,[10],0.23 OD450
same,OD450 at 0.001 nM,[10],0.33 OD450
same,OD450 at 0.01 nM,[10],0.2 OD450
same,OD450 at 0.1 nM,[10],0.23 OD450
same,OD450 at 1 nM,[10],0.22 OD450
same,OD450 at 10 nM,[10],0.22 OD450
same,OD450 at 100 nM,[10],0.31 OD450
same,OD450 at 0.0001 nM,[11],0.06 OD450
same,OD450 at 0.01 nM,[11],0.05 OD450
same,OD450 at 0.1 nM,[11],0.06 OD450
same,OD450 at 1 nM,[11],0.06 OD450
same,OD450 at 10 nM,[11],0.08 OD450
same,OD450 at 100 nM,[11],0.1 OD450
same,OD450 at 0.0001 nM,[12],0.26 OD450
same,OD450 at 0.001 nM,[12],0.25 OD450
same,OD450 at 0.01 nM,[12],0.24 OD450
same,OD450 at 0.1 nM,[12],0.27 OD450
same,OD450 at 1 nM,[12],0.23 OD450
same,OD450 at 10 nM,[12],0.24 OD450
same,OD450 at 100 nM,[12],0.3 OD450
same,OD450 at 0.0001 nM,[13],0.05 OD450
same,OD450 at 0.001 nM,[13],0.06 OD450
same,OD450 at 0.01 nM,[13],0.06 OD450
same,OD450 at 0.1 nM,[13],0.06 OD450
same,OD450 at 1 nM,[13],0.06 OD450
same,OD450 at 10 nM,[13],0.06 OD450
same,OD450 at 100 nM,[13],0.06 OD450
hIgG1 (anti-hel-hIgG1 antibody against hen egg lysozyme),OD450 (Biotin-C33B904 signal),[14],2.3
same,OD450 (Biotin-C33B904 signal),[15],2.38
same,OD450 (Biotin-C33B904 signal),[16],2.16
same,OD450 (Biotin-C33B904 signal),[17],2.34
same,OD450 (Biotin-C33B904 signal),[18],2.33
same,OD450 (Biotin-C33B904 signal),[19],2.21
same,OD450 (Biotin-C33B904 signal),[20],2.34
same,OD450 (Biotin-C33B904 signal),[21],2.13
same,OD450 (Biotin-C33B904 signal),[22],2.17
same,OD450 (Biotin-C33B904 signal),[23],2.22
same,OD450 (Biotin-C33B904 signal),[24],2.17
same,OD450 (Biotin-C33B904 signal),[25],2.35
same,OD450 (Biotin-C33B904 signal),[26],2.17
same,OD450 (Biotin-C33B904 signal),[27],2.26
same,OD450 (Biotin-C33B904 signal),[28],2.19
same,OD450 (Biotin-C33B904 signal),[29],2.35
same,OD450 (Biotin-C33B904 signal),[30],2.08
same,OD450 (Biotin-C33B904 signal),[31],2.21
same,OD450 (Biotin-C33B904 signal),[32],2.27
same,OD450 (Biotin-C33B904 signal),[33],2.3
same,OD450 (Biotin-C33B904 signal),[34],2.35
same,OD450 (Biotin-C33B904 signal),[35],2.24
same,OD450 (Biotin-C33B904 signal),[36],2.3
same,OD450 (Biotin-C33B904 signal),[37],2.46
